# In patent US20200055939A1:
# Where a chain is given by its changes, count along the chain named. “And” between values parts separate entries of the source, which are not always exact repeats. Equal values may be shown once.
# B1: 7D4.6 Fab (Fab, V domains shown)
# VH: DVQLQESGPGLVKPSQSLSLTCTVTGYSITSDYAWNWIRQFPRNKLEWMGYINYSGTTNYNPSLKSRISITRDTSKNQFFLQLISVTTEDTATYYCSYYRYDGAWFPYWGQGTLVTVSA
# VL: DIQMTQSPASLSASVGETVTITCRASGNIHNYLAWYQQKQGKSPQLLVYNAIMLADGVPSRFSASGSGTQYSLKINSLQPEDFGSYYCQHFWSFPLTFGAGTKVEIK
# B2: 1D5 Fab (Fab, V domains shown, not shown: a dimerising Fc or GST)
# VH: EIQLQQSGPELVKPGASVKVSCKASGYAFTSQNIYWVKQSHGKSLEWIGYIEPYNVVPMYNPKFKGKATLTVDKSSSSAYIHLNSLTSEDSAIYYCARSGSSNFDYWGQGTTLTVSS
# VL: EIILTQSPTTMAASPGEKITITCSASSSISSHYLHWYQQKSGFSPKLLIYRTSNLASGVPARFSGSGSGTSYSLTIGTMEAEDVATYYCQQGSSLPLTFGAGTKVEIK
# B3: 6F8.7 Fab (Fab, V domains shown)
# VH: DVQLQGSGPGLVKPSQSLSLTCSVTGYSITNDYYWNWIRQFPGNKLEWMGFISFGGSNNYNPSLKNRISITRDTSKNQFFLKLSSVTTEDTATYYCARYDGRGAWFAYWAQGTLVTVSA
# VL: B1 VL with N50D, M53T, A64G, S85N
# B4: 13A9 (antibody, V domains shown)
# VH: QVQLQQSGAELVRPGTSVKVSCKASGYAFTNYLIEWVKQRPGQGLEWIGAINPGSGATNYNEKFKDKARLTADKSSNTAYLQFSSLTSDDSAVYFCARFLGNYFDNWGQGATLTVSS
# VL: DIQMTQSPASLSASVGETVTITCRASGNIHSYLAWYQQKQGKSPQLLVYYAETLADGVPSRFSGRGSGTQYSLKINSLQPEDFGSYFCQQFWTTPYTFGGGTKVEIK
# Key:
# R240A = assay: SPR, Fab over captured MICA*008.mIgG2a Ala variant; KD relative to wild type
# Y283A = assay: as above
# V244A = assay: as above
# G275A = assay: as above
# D249A = assay: as above
# R274A = assay: as above
# H248A = assay: as above
# R279A = assay: as above
# E285A = assay: as above
# T292A = assay: as above
# H290A = assay: as above
# Q241A = assay: as above
# S245A = assay: as above
# I236A = assay: as above
# the other Glyco variants = assay: ELISA, coated variant
# V244A, sequence (chain, as listed by the source V244A V244A limits assumed): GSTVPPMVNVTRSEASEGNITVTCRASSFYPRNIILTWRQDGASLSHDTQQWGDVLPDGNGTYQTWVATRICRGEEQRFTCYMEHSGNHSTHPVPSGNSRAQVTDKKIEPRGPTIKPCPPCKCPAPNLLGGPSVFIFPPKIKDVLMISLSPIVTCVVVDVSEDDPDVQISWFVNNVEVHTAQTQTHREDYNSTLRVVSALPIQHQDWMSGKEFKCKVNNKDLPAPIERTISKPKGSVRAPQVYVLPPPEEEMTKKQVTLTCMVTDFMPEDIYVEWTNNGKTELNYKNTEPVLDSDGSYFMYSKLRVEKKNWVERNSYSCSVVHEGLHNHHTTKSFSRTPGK
# R240A, sequence (chain, as listed by the source R240A R240A limits assumed): as the sequence (chain, as listed by the source V244A V244A limits assumed) above, with R39A, A43V counted along it
# G275A, sequence (chain, as listed by the source G275A G275A limits assumed): as the sequence (chain, as listed by the source V244A V244A limits assumed) above, with A43V, G74A counted along it
# Y283A, sequence (chain, as listed by the source Y283A Y283A limits assumed): as the sequence (chain, as listed by the source V244A V244A limits assumed) above, with A43V, Y82A counted along it
# R279A, sequence (chain, as listed by the source R279A R279A limits assumed): as the sequence (chain, as listed by the source V244A V244A limits assumed) above, with A43V, R78A counted along it
# D249A, sequence (chain, as listed by the source D249A D249A limits assumed): as the sequence (chain, as listed by the source V244A V244A limits assumed) above, with A43V, D48A counted along it
# S245A, sequence (chain, as listed by the source S245A S245A limits assumed): as the sequence (chain, as listed by the source V244A V244A limits assumed) above, with A43V, S44A counted along it
# E285A, sequence (chain, as listed by the source E285A E285A limits assumed): as the sequence (chain, as listed by the source V244A V244A limits assumed) above, with A43V, E84A counted along it
# I236A, sequence (chain, as listed by the source I236A I236A limits assumed): as the sequence (chain, as listed by the source V244A V244A limits assumed) above, with I35A, A43V counted along it
# H248A, sequence (chain, as listed by the source H248A H248A limits assumed): as the sequence (chain, as listed by the source V244A V244A limits assumed) above, with A43V, H47A counted along it
# H290A, sequence (chain, as listed by the source H290A H290A limits assumed): as the sequence (chain, as listed by the source V244A V244A limits assumed) above, with A43V, H89A counted along it
# Q241A, sequence (chain, as listed by the source Q241A Q241A limits assumed): as the sequence (chain, as listed by the source V244A V244A limits assumed) above, with Q40A, A43V counted along it
# T292A, sequence (chain, as listed by the source T292A T292A limits assumed): as the sequence (chain, as listed by the source V244A V244A limits assumed) above, with A43V, T91A counted along it
# R274A, sequence (chain, as listed by the source R274A R274A limits assumed): as the sequence (chain, as listed by the source V244A V244A limits assumed) above, with A43V, R73A counted along it
binder,measurement,setting,value
B1,fold-decrease in affinity,R240A,1500
same,fold-decrease in affinity,Y283A,3.2
same,fold-decrease in affinity,V244A,8.6
same,fold-decrease in affinity,G275A,3.1
B2,fold-decrease in affinity,R240A,15500
same,fold-decrease in affinity,D249A,3.5
same,fold-decrease in affinity,R274A,3
same,fold-decrease in affinity,H248A,16
same,fold-decrease in affinity,R279A,3950
same,fold-decrease in affinity,E285A,1060
same,fold-decrease in affinity,T292A,3040
same,fold-decrease in affinity,H290A,14400
same,fold-decrease in affinity,Q241A,9830
same,fold-decrease in affinity,Y283A,6260
same,fold-decrease in affinity,S245A,13
same,fold-decrease in affinity,V244A,10400
same,fold-decrease in affinity,I236A,0.01
same,fold-decrease in affinity,G275A,0.03
B3,fold-decrease in affinity,V244A,5.5
B4,Elisa value,the other Glyco variants,3.8 and 3.9
